B1: Ab 27 (scFv, V domains shown)
VH: QVQLVQSGTEVKKPGASVKVSCKASGYSFTGSHLHWVRQAPGQGLEWMGWINPDSGVINYAQKFQGRVTLTRDTSISTAYMELSGLRSDDTAVYYCARDKAIGYVWALDYWGQGTLVTVSS
VL: QSALTQPPSVSGSPGQSVTISCTGTSSDVGTYNRVSWYQQPPGKAPKLMIYEVSNRPSGVSNRFSGSKSGNTASLTISGLQAEDEADYYCSSYTRTFTYVFGTGTKVTVL
B2: Ab_18 (scFv, V domains shown)
VH: EVQLVQSGGGVVQPGRSLRVSCAASGFSFSRYGMHWVRQAPGKGLEWVAFIRHDGSKKYYADSVEGRFTISRDNSRNTVSLEMNSLRGEDTAVYYCAKDGRLEAALDDWGQGTLVTVSS
VL: NFMLTQPHSMSGSAGKTVTVSCIRSSGSIANNFVQWYQQRPGSAPTTVIYEDNQRPSGVPDRFSGSIDSSSNSASLTISGLKTEDEADYYCQSYDSSNLVFGGGTRLTVL
B3: Ab_17 (scFv, V domains shown)
VH: QVQLVQSGGGVVQPGRSLRLSCAASGFTFDDYAMHWVRQVPGKGLEWVSGIDWNSGVIGYADSVKGRFTISRDNVKNSLYLQMNSLRTEDSALYYCAKDIGPGGSGSYYAFDIWGQGTTVTVSS
VL: QSALTQPASVSGSPGQSITISCTGTSSDVGGSKYVSWYQQHPGKAPKVMIYDVTKRPSGVPDRFSGSKSGNTASLTISGLQAEDEADYYCAAWDDSLNGVVFGGGTKLTVL
B4: Ab 26 (scFv, V domains shown)
VH: QVQLVQSGGGLVQPGRSLRLSCAASGFTFDDYAMHWVRQVPGKGLEWVSGIDWNSGVIGYADSVKGRFTISRDNAKNSLYLQMNSLRAEDTALYYCAKDAYSYGFLGAFDIWGQGTMVTVSS
VL: LPVLTQPPSVSVAPGQTASITCGGDNIRTKGVHWYQQKPGQAPLLVIYYASDRPSGIPERFSGSSSGNTATLTISRVEAGDEADYYCQVWDSSSDLVVFGGGTTLTVL
B5: Ab 23 (scFv, V domains shown)
VH: EVQLVQSGAEVKKPGSSVKVSCRSSGGTFSTYGITWVRQAPGQGLEWMGRIIPSLGIPNYAQKFQGRVTITADTSVSTAWMELSSLESDDTAIYYCARENIDLATNDFWGQGTLVTVSS
VL: QSALTQPPSASGSPGQSVTISCTGTSRDIGAYGYVSWYQQVPGKAPKLIIYEVRNRPSGVSSRFSGSKSGNTASLTISGLQAEDEADYYCSSYTSSSTLDVVFGGGTKLTVL
B6: S1-RBD-R3-T1-C7 Ab (Ab 29) (scFv, V domains shown)
VH: QVQLQQSGPGLVKPSQTLSLTCAISGDSVSSYSDAWNWIRQSPSRGLEWLGRTYYRSKWYNDYAVSVKSRITINPDTSKNQFSLQLSSVTPEDTAVYYCAREIVATTPFRNYYYGMDVWGQGTTVTVSS
VL: NFMLTQPHSVSESPGNTVTISCTRTSGSIASNYVQWYQQRPGSSPTTVIFQDKLRPSGVPDRFSGSIDSSSNSASLTISGLKTEDEADYYCQSYDSSSLWVFGGGTKLTVL
B7: Ab_14 (scFv, V domains shown)
VH: QVQLQQSGPGLVKPSQTLSLTCAISGDSVSSNSAAWNWIRQSPARGLEWLGRTYYRSRWYNDYAISMKSRITINPDTSKNQFSLQLESVTPEDTAVYYCAREIRGFDYWGQGTLVTVSS
VL: QSVLTQPPSASGSPGQSVTISCTGTSSDVGAYNFVSWYQHHPGKAPKLIIYDFNKRPSGVPDRFSGSKSGNTASLTVSGLQADDEADYYCSSYAGSNNFDVVFGGGTKLTVL
B8: RBD-R3-E1-A5 Ab (Ab_30) (scFv, V domains shown)
VH: QVQLVQSGGGVVQPGKSLRLSCTASGFTFSDFPIHWVRQAPGKGLEWVGVISYDGNIKYYGDSVKGRFTISRDNAKNSLYLQMNSLRVEDTAVYYCARGGSSFDIWGQGTTVTVSS
VL: SYELTQPPSVSEAPRQRVTISCSGSTSNIGNNAVSWYQHLPGKAPKLLIYYNERLPSGVSDRFSGSKSGTSASLAISGLRSEDEADYYCAAWDDSLSGHVVFGGGTKLTVL
B9: Ab 20 (scFv, V domains shown)
VH: QVQLVQSGGGSVKPGGSLRLSCAASGYRLSDYYMHWVRQAPGKGLEWVANIKQDGSEKYYVDSVKGRFTISRDNAKNSLYLQMNSLRAEDTAVYYCARVRGWSRGYFDYWGQGTLVTVSS
VL: NFMLTQPHSVSESPGKTVTISCTGSSGSIASNYVQWYQQRPGSAPTTVIYEDNQRPSGVPDRFSGSIDSSSNSASLLISGLKTEDEADYYCQSYDSSNHWVFGGGTKLTVL
B10: Ab 28 (scFv, V domains shown)
VH: QVTLKESGPGLVNPSETLSLTCTVSGASISNSFWSWIRQSPGKGLEWIGYTSYSGNSIYNPSLKSRLTMSIDTSKNQLSLNLRSLTAADTAVYYCARREWIKGHFDYWGQGTLVTVSS
VL: NFMLTQPHSVSESPGKTVTISCTGSGGSIASNYVQWYQQRPGSAPTTVIYEDNQRPSGVPDRFSGSIDSSSNSASLTISGLKTEDEADYYCQSYDSSNPVVFGGGTKLTVL
B11: S1-RBD-R3-T1-B12 Ab (Ab_31) (scFv, V domains shown)
VH: QVQLVQSGAEVKKPGSSVKVSCKASGGTFSSYTISWVRQAPGQGLEWMGGIIPILGTPNYAQKFQDRVAITADKSTSTAYMELSSLRSEDTAVYYCAVGSGWYSGFDYWGQGTLVTVSS
VL: NFMLTQPHSVSESPGKTVTISCTGSSGSIASNYVQWYQQRPGSAPTTVIYEDSQRPSGVPDRFSGSIDSSSNSASLTISGLKTEDEADYYCQSFHNSNPVIFGGGTKLTVL
B12: Ab 25 (scFv, V domains shown)
VH: QVQLVQSGGGLVQPGGSLRLSCAASGFTFSSYWMSWVRQAPGKGLEWVANIKQDGSEKYYVDSVKGRFTISRDNAKNSLYLQMNSLRAEDTAVYYCARGFYYYGAFDIWGQGTTVTVSS
VL: NFMLTQPHSVSESPGKTVTISCTGSSGSIASNYVQWYQQRPGSAPTTVIYEDNQRPSGVPDRFSGSIGSSSNSASLTISGLKTEDEADYYCQSYDSSNHWVFGGGTKLTVL
B13: RBD-R3-E1-B3 Ab (Ab_32) (scFv, V domains shown)
VH: QVQLVQSGAEVKKPGESLKISCKGSGYSFTSYWIGWVRQMPGKGLEWMGIIYPGDSDTRYSPSFQGQVTISADKSISTAYLQWSSLKASDTAMYYCARGWQWHDYWGQGTLVTVSS
VL: QTVVTQEPAVSVALGQTVRITCQGDSLRSYYASWYQQKPGQAPVLVVYDKDKRPSGIPDRFSGSTSGNTASLTITGAQAEDEADYYCNSRDRSDNHVVFGGGTKLTVL
B14: Ab 21 (scFv, V domains shown)
VH: QVQLVQSGGGLVQPGGSLRLSCATSGFTFDDYAMHWVRQAPGKGLEWVSGISWNSGSIGYVDSVKGRFTISRDNRNNKVYLQMNNLRAEDTAVYYCARDWWGSIDHWGLGTLVTVSS
VL: QSALTQPRSVSGSPGQSVTISCTGTSSDVGGYDYVSWYQQHPGKAPKLIIYDVSKRPSGVPDRFSGSKSGNTASLTVSGLQAEDEADYYCSSYTSSSPVVFGGGTKLTVL
B15: Ab_16 (scFv, V domains shown)
VH: QVQLVQSGGGVVQPGRSLRLSCAASGFTFSNYGMHWVRQAPGKGLEWVALIWERGSKKDYADSVKGRFTVSRDNSKNTLYLQMNSLRPEDTAVYFCAREGISMTGAEYFQHWGQGTLVTVSS
VL: QSVLTQPPSVSGSPGQRVTMSCTGSSSNIGAGYDVHWYQQVPGAAPRLLIYGTNNRPSGVPDRFSGSKSGTSASLTITGLQAEDEADYYCQSYDNSLTDPYVFGTGTKVTVL
B16: Ab_19 (scFv, V domains shown)
VH: EVQLVESGAEVKKPGESLKISCKGSGYSFTSYWIGWVRQMPGKGLEWMGIIYPGDSDTRYSPSFQGQVTISADKSISTAYLQWSSLKASDTAMYYCARRGDLDAFDIWGQGTMVTVSS
VL: QPGLTQPPAASGTPGQRVTVSCSGASANIGSNAVSWFKQFPETAPRLLISGNTHRPSGVPDRVSGSKSGTSASLTISGLQSDDEADYYCAAWDDSLNGYVFGSGTKVTVL

Target: D614G Spike (SARS-CoV-2, UniProt P0DTC2 16-1213)

In order of falling Kd:
1. B16  10.9 pM
2. B4  9.97 pM
3. B10  9.41 pM
4. B11  9.03 pM
5. B5  8.82 pM
6. B9  8.64 pM
7. B12  8.56 pM
8. B15  8.35 pM
9. B7  8.12 pM
10. B14  8 pM
11. B1  7.53 pM
12. B8  7.43 pM
13. B13  7.26 pM
14. B3  6.8 pM
15. B2  6.33 pM
16. B6  1.04 pM

Source: US20230374114A1 (Dana-Farber, published 2023)
